Laboratory results: patent CN114349858A (YOUMALI WUHAN BIOTECHNOLOGY CO LTD, dated 2022)

Molecular target: T1, 重组人IL-10蛋白 (human, UniProt P22301 19-178)
T1 construct: The construct used in the Biacore and ELISA assays is only called recombinant human IL-10 protein; also called 人白介素-10; 重组表达的人白介素-10
Test: SPR, Biacore 3000; antibody immobilised on CM5 chip, recombinant human IL-10 at 20, 12.3, 4.1, 1.37 and 0.46 nM

T1 sequence (P22301 19-178 limits assumed): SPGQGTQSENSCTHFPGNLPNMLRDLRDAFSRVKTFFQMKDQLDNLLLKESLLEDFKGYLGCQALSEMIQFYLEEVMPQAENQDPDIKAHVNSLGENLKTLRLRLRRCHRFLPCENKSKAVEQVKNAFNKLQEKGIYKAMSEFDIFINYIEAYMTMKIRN

B1: 抗人IL-10兔单克隆抗体B (antibody, V domains shown)
VH: QSLEESGGDLVKPGASLTLTCTASGFSFSGSYGICWVRQAPGKGLEWIACIVTSSGTTYYASWAKGRFTISKTSSTTVTLQMTSLTAADTATYFCARDLLAYYTGNLWGPGTLVTVSS
VL: ALVMTQTPASVEAAVGGTVTINCQASQSISNELSWYQQKPGQRPELLIYGASRLESGVPSRFSGSGSGTEFTLTISDLECDDAATYYCQSAYYSSSVDIYNTFGGGTEVVVKG
notes: Used biotin-labelled as the detection antibody in the sandwich ELISA; also called B抗体; 兔抗人IL-10单克隆抗体B
Question: For B1, which Kd is on record?
Answer: 9.68 pM
